# In patent US20220177835A1, “METHODS OF GENERATING AND ISOLATING MIDBRAIN DOPAMINE NEURONS” (MEMORIAL SLOAN-KETTERING CANCER CENTER, priority 2019, published 2022):
# Legend:
# rodent GSK3β homologs = conditions: cited from earlier work
# [1] = system: NURR1:GFP hPSC derived mDAs; test: mRNA expression in NURR1:GFP sorted mDAs (WNT-Boost vs WNT-Boost+FGF18); format: cell-based, human; conditions: WNT-Boost+FGF18 (day 12-day 16) vs WNT-Boost
# Experimental: NURR1:GFP hPSCs were then cultured under WNT-Boost and WNT-boost+FGF18 (day 12-day 16) protocols. NURR1:GFP positive cells were isolated on day 25 of differentiation followed by continuous culturing until day 40. On day 40 of differentiation, these midbrain DA neurons expressed high TH along with FOXA2 (see FIG. 12).
# (§1) These sorted cells were transplanted to immuno-deficient mice.
# [2] = system: grafted NURR1:GFP sorted mDAs; test: Transplantation of NURR1:GFP sorted mDAs to immuno-deficient mice; format: in vivo, mouse
# Text: as §1
# [3] = system: MEL1 hPSC derived CD49e weak mDAs; test: mRNA expression in CD49e sorted cells (WNT-Boost vs WNT-boost+FGF18); format: cell-based, human; conditions: WNT-boost+FGF18 (day 12-day 16) vs WNT-Boost
# Experimental: CD49e marker was tested in another hPSC line MEL1 for purifying midbrain DA neuron. Substantially pure mDA morphology was discovered in cells sorted with CD49e (Negative and/or weak expression) on day 25 of differentiation and continuously cultured for another 15 days (day 40 of differentiation) under the WNT-boost protocol and the WNT-boost+FGF18 (day 12-day 16) protocol (see FIGS. 19-20). These sorted mDAs had high TH immune-staining (see FIG. 21).
# [4] = system: grafted differentiated cells in mouse; test: In vivo graft of differentiated cells (WNT-boost vs WNT-boost+FGF18) into intact mouse
# Text: The in vivo survival of differentiated cells generated from WNT-boost+FGF18 protocol was examined. Cells generated from WNT-boost and WNT-boost+FGF18 protocols were grafted into intact mouse […].
# [5] = system: stem-cell-derived midbrain DA neurons and precursors; test: Marker expression in stem-cell-derived mDA differentiation under Wnt-Boost protocol with added FGF; format: cell-based, human
# Text: Midbrain DA neurons and precursors thereof were derived from stem cells under a Wnt-Boost protocol previously disclosed (the “7.5 M bump protocol (modification of GMP V2B)” protocol disclosed in International Publication No. WO 2016/196661, which is incorporated by reference in its entirety), which is referred to as “Wnt-Boost protocol” or “Boost protocol” hereinafter. It was discovered that EN1 expression was decreased starting from day 11 of the differentiation with Wnt-Boost protocol (see FIG. 1). Maintaining EN1 expression in the differentiated cells is important to generate mature and functional midbrain DA neurons. Thus, to maintain EN1 expression, the present example tested adding FGF8b treatment to the Wnt-Boost protocol at a late time of differentiation (see FIG. 2). Cells were contacted with FGF8b from day 9 to day 16, from day 10 to day 16, from day 11 to day 16, from day 12 to day 16, from day 13 to day 16, from day 14 to day 16, or from day 15 to day 16, in addition to the Wnt-Boost protocol, were tested. […] EN1 positive cells also expressed FOXA2 and LMX1A. […] SIX1 immuno-staining of the cells on day 30 of differentiation confirmed the mRNA results (see FIG. 5).
# FGF8b, FGF17, and FGF18 were tested by being added them to the cell culture from day 12 to day 16 at a concentration of 100 ng/ml under the WNT-Boost protocol.
molecule,measurement,setting,value
"Cc1c[nH]c(-c2cnc(NCCNc3ccc(C#N)cn3)nc2-c2ccc(Cl)cc2Cl)n1 [CHIR99021, 6-(2-(4-(2,4-dichlorophenyl)-5-(4-methyl-1H-imidazol-2-yl)pyrimidin-2-ylamino)ethylamino)nicotinonitrile]",IC50 values against rodent GSK3β homologs,rodent GSK3β homologs,nanomolar
"FGF18: FGF activator; member of the FGF8 subfamily of secreted signaling proteins (protein, UniProt O76093 28-207, looked up) Fibroblast growth factor 18: EENVDFRIHVENQTRARDDVSRKQLRLYQLYSRTSGKHIQVLGRRISARGEDGDKYAQLLVETDTFGSQVRIKGKETEFYLCMNRKGKLVGKPDGTSKECVFIEKVLENNYTALMSAKYSGWYVGFTKKGRPRKGPKTRENQQDVHFMKRYPKGQPELQKPFKYTTVTKRSRRIRPTHPA",mRNA expression level of EN1,[1],higher expression level of EN1
same,neurite outgrowth from grafted region,[2]; FGF18 treated cells (WNT-Boost+FGF18 protocol) vs WNT-Boost,better neurite outgrowth from grafted region
same,cell survival of graft,[2]; sorted mDAs from WNT-Boost+FGF18 (day 12-day 16) protocol,excellent cell survival
same,mRNA expression level of EN1,[3],higher expression level of EN1
same,mRNA expression level of PITX2,[3],lower expression level of PITX2
same,striatal innervation with fibers,"[4]; 1 month post grafting, WNT-boost+FGF18 vs WNT-boost",better striatal innervation
same,maintenance of EN1 expression in vivo,"[4]; cells from WNT-boost+FGF18 protocol vs WNT-boost protocol, grafted",improved maintenance of EN1 expression in vivo
same,mRNA expression level of SMA,"[5]; day 16 of differentiation, 100 ng/ml from day 12 to day 16, compared with FGF8b",reduced mRNA expression level of SMA
same,EN1 protein expression (immunostaining),"[5]; day 16 of differentiation, FGF added from day 9-15 to day 16 to Wnt-Boost protocol",highly maintained in a FGF18 contacting duration dependent manner
same,EN1 expression at the mature stage of differentiation,[5]; day 27 and day 40 (FIG. 8),still highly maintained
same,expression levels of SMA1 and SIX1,"[5]; mature stage, FGF18 vs FGF8b treated cells",less expression levels of SMA1 and SIX1 than FGF8b treated cells
same,expression level of PITX2,"[5]; mature stage, compared to cells differentiated by the WNT-Boost protocol",reduced expression level of PITX2
